{
  "source": "patent US20130018176A1",
  "about": "“METHODS OF PRODUCING HYBRIDOMAS AND MONOCLONAL ANTIBODIES AND ANTIBODIES PRODUCED THEREBY” (AMGEN INC., priority 2007, published 2013)",
  "molecules": {"B1": {"name": "Antibody 26F11: human antibody from Xenomouse, SEQ ID NOs: 187-196 (antibody)", "heavy": "QVQLVESGGGVVQPGRSLRLSCAASGFTFSNYGMHWVRQAPGKGLEWVAVIWYVGSNKYYADSVKGRFTISRDNSKNTLYLQMNSLRAEDTAVYYCARAQEGMAPDAFDIWGQGTMVTVSSASTKGPSVFPLAPCSRSTSESTAALGCLVKDYFPEPVTVSWNSGALTSGVHTFPAVLQSSGLYSLSSVVTVPSSNFGTQTYTCNVDHKPSNTKVDKTVERKCCVECPPCPAPPVAGPSVFLFPPKPKDTLMISRTPEVTCVVVDVSHEDPEVQFNWYVDGVEVHNAKTKPREEQFNSTFRVVSVLTVVHQDWLNGKEYKCKVSNKGLPAPIEKTISKTKGQPREPQVYTLPPSREEMTKNQVSLTCLVKGFYPSDIAVEWESNGQPENNYKTTPPMLDSDGSFFLYSKLTVDKSRWQQGNVFSCSVMHEALHNHYTQKSLSLSPGK", "light": "SYELTQPPSVSVSPGQTASITCSGDKMGERYACWYQQKPGQSPILVIYQDTKRPSGIPERFSGSNSGNTATLTISGTQAMDEADYYCQAWYSSTNVVFGGGTKLTVLGQPKAAPSVTLFPPSSEELQANKATLVCLISDFYPGAVTVAWKADSSPVKAGVETTTPSKQSNNKYAASSYLSLTPEQWKSHRSYSCQVTHEGSTVEKTVAPTECS"}},
  "key": {"[1]": {"target": "T1, Ferroportin expressed inducibly in 293 cells (Homo sapiens, UniProt Q9NP59)", "T1 construct": "expressed in transfected cells; host or cells: 293 cells, tetracycline/doxycycline-inducible", "T1 sequence (Q9NP59 1-571)": "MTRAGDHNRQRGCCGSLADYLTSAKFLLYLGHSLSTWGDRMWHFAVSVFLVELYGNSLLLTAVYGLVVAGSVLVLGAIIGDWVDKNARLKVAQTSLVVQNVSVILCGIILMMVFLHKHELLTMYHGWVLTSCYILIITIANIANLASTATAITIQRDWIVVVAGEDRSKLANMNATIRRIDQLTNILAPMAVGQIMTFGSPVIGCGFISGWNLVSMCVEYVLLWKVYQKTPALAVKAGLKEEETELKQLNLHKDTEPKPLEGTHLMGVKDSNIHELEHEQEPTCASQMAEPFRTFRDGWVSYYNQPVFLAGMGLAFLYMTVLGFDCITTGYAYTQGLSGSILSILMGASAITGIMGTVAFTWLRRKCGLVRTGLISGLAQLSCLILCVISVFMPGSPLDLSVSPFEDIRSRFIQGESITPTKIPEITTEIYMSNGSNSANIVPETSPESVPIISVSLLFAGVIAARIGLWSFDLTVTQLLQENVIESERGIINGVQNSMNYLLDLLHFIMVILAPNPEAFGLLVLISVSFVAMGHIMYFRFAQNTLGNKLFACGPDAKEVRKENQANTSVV", "experiment": "In vitro hepcidin activity ferritin assay", "format": "cell-based", "conditions": "293 cells with tetracycline-inducible ferroportin; 1 μg/ml hepcidin; 17-20 hours", "experimental": "Human hepcidin purified or produced according to Examples 1, 2, 3 and 4 was assayed for iron-regulating bioactivity in an in vitro cellular assay. […] The action of ferroportin can be reduced in a dose-dependent manner by hepcidin treatment.\n293 cells expressing a tetracycline-inducible ferroportin gene were plated at 50,000 cells per well (70-80% density) in a 96 well BioCoat poly-D Lysine-coated plate in DMEM supplemented with 5% fetal bovine serum and a penicillin/streptomycin/glutamine supplement (Gibco BRL). After an overnight incubation at 37° C. with 5% CO2, the medium was replaced with assay medium (as above, but supplemented with 2.5 μg/ml doxycycline for […], 2.5 μg/ml iron citrate for iron supplemented wells and 1 μg/ml hepcidin for hepcidin treatment wells). The plate was further incubated for 17-20 hours as above before washing the wells in cold PBS and lysing in 120 ul of 1% Triton lysis buffer on ice for 15 minutes. 100 μl of lysates were used for ferritin analysis (Olympus AU400 clinical chemistry analyzer) and 10 μl for BCA protein assay (Pierce). Ferritin results were normalized for protein content."}, "human hepcidin": {"target": "T2, human hepcidin (Homo sapiens, UniProt P81172)", "T2 construct": "The pro-region of the protein was enzymatically cleaved by incubation with Kex protease; made in house; host or cells: E. coli", "T2 sequence (P81172 60-84 limits assumed)": "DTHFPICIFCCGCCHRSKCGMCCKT", "experiment": "Neutralization of injected human hepcidin in mice (hypoferremic response)", "format": "in vivo", "conditions": "25 μg i.p. with isotype control antibody; female C57BL/6 mice; two hours", "experimental": "Activity of anti-human hepcidin antibodies was evaluated in vivo in mice that were administered human hepcidin in an amount sufficient to generate a hypoferremic response. On day 0, female C57BL/6 mice were injected subcutaneously with a murine monoclonal antibody (Ab2.7) directed against human hepcidin. Control mice received murine IgG1 as an isotypic control. At day 3, the mice received a single intraperitoneal injection of 25 μg E. coli-derived recombinant human Hepcidin (rhHepc). Serum iron levels were analyzed two hours later. […] Statistics represent ANOVA with a Dunnett's post-hoc test comparing all groups against the saline control."}, "[2]": {"target": "T3, E. coli-derived human hepcidin (Homo sapiens, UniProt P81172)", "T3 construct": "The pro-region of the protein was enzymatically cleaved by incubation with Kex protease; made in house; host or cells: E. coli", "T3 sequence (P81172 60-84 limits assumed)": "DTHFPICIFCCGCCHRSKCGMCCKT", "experiment": "Biacore concurrent binding to hepcidin captured on antibody 1S1 surface (sandwich pairing)", "conditions": "20 nM hepcidin on 1S1 surface, then 50 nM antibody", "experimental": "Using Biacore analysis, a surface coated with antibody 1S1 was tested for the concurrent binding of hepcidin and another antibody (FIG. 28). Immobilization of anti-Hepc antibody 1S1 to the sensor chip surface was performed according to manufacturer's instructions using a continuous flow of 0.005% P-20/PBS buffer. Briefly, carboxyl groups on the sensor chip surfaces were activated by injecting 60 μL of a mixture containing 0.2 M N-ethyl-N′-(dimethylaminopropyl)carbodiimide (EDC) and 0.05 M N-hydroxysuccinimide (NHS). This was followed by injecting 1S1 diluted in 10 mM acetate, pH 4.0 at concentrations between 20 μg/mL. Excess reactive groups on the surfaces were deactivated by injecting 60 μL of 1 M ethanolamine. Final immobilized levels were 5,000-6,000 resonance units (RU) for the Ab 1S1 surface. A blank, mock-coupled reference surface was also prepared on the sensor chip. 20 nM E. coli-derived human hepcidin was injected over and bound to the 1S1 antibody surface. Then 50 nM antibody 2.7, 23F11, 26F11, and 1S1 were injected over the hepcidin/1S1 surface. After the antibody injection, the surfaces were regenerated by injecting 30 μL 10 mM HCl pH 2.0."}},
  "data": [
    {"molecule": "hydrogen-DTHFPICIFCCGCCHRSKCGMCCKT-free acid [synthetic hepcidin]", "values": [
      {"measurement": "iron retention (ferritin)", "setting": "[1]", "value": "increase in iron retention"}
    ]},
    {"molecule": "urinary hepcidin: Human hepcidin isolated from urine of sepsis patients", "values": [
      {"measurement": "iron retention (ferritin)", "setting": "[1]", "value": "increase in iron retention"}
    ]},
    {"molecule": "rhHepc: E. coli-derived recombinant human Hepcidin", "values": [
      {"measurement": "serum iron levels after hepcidin injection", "setting": "human hepcidin", "value": "hypoferremia"}
    ]},
    {"molecule": "recombinant hepcidin: human hepcidin produced recombinantly according to Examples 2 and 3 (CHO- or E. coli-derived)", "values": [
      {"measurement": "iron retention (ferritin)", "setting": "[1]", "value": "increase in iron retention"}
    ]},
    {"molecule": "B1", "values": [
      {"measurement": "ability to bind hepcidin concurrently with 1S1 (sandwich pair)", "setting": "[2]", "value": "markedly lower ability to bind to hepcidin concurrently with 1S1"}
    ]}
  ]
}
